Laboratory results reported in the supplement of paper PMC9112550, “Optimization of the antimicrobial peptide Bac7 by deep mutational scanning” (BMC Biology, 2022).

Tested on: Escherichia coli TOP10
Experiment: shrunken log2 fold change of peptide-encoding DNA abundance (4.5 h post-induction vs induction); higher = less antimicrobial activity (less host growth inhibition)
Conditions: time post-induction: 4.5 h; library: site-saturation at positions 5, 18, 19, 20
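Further: peptides expressed intracellularly from a pBAD plasmid library in pooled LB shake-flask culture, induced with 0.3% L-arabinose, DNA abundance read by NGS, three biological replicates, DESeq2 with apeglm shrinkage.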

| Sequence | shrunken log2 fold change |
| --- | --- |
| RRIRNRPPRLPRPRPRPMVVPRP | 0.00587 |
| RRIRARPPRLPRPRPRPVQPPRP | 0.392 |
| RRIRTRPPRLPRPRPRPFVWPRP | 0.00322 |
| RRIRIRPPRLPRPRPRPHNLPRP | -0.334 |
| RRIRPRPPRLPRPRPRPYPFPRP | -0.0133 |
| RRIRVRPPRLPRPRPRPFAEPRP | 0.171 |
| RRIRSRPPRLPRPRPRPQTGPRP | 0.0318 |
| RRIRYRPPRLPRPRPRPHKFPRP | -0.609 |
| RRIRQRPPRLPRPRPRPWQVPRP | -0.154 |
| RRIRWRPPRLPRPRPRPRPEPRP | 0.502 |
| RRIRFRPPRLPRPRPRPRMNPRP | -0.173 |
| RRIRNRPPRLPRPRPRPKNSPRP | -0.161 |
| RRIRCRPPRLPRPRPRPKLEPRP | -0.125 |
| RRIRYRPPRLPRPRPRPLFFPRP | -0.751 |
| RRIRWRPPRLPRPRPRPAVPPRP | 0.506 |
| RRIRNRPPRLPRPRPRPVIWPRP | -0.112 |
| RRIRDRPPRLPRPRPRPDNHPRP | -0.107 |
| RRIRERPPRLPRPRPRPKMYPRP | -0.898 |
| RRIRMRPPRLPRPRPRPANPPRP | 0.267 |
| RRIRYRPPRLPRPRPRPNEGPRP | -0.363 |
| RRIRERPPRLPRPRPRPMKRPRP | -0.312 |
| RRIRFRPPRLPRPRPRPFCSPRP | -0.486 |
| RRIRIRPPRLPRPRPRPSYRPRP | -0.0544 |
| RRIRWRPPRLPRPRPRPIKGPRP | -0.197 |
| RRIRERPPRLPRPRPRPHGYPRP | 0.0062 |

| Sequence | shrunken log2 fold change |
| --- | --- |
| RRIRMRPPRLPRPRPRPLGMPRP | -0.112 |
| RRIRPRPPRLPRPRPRPCHAPRP | -0.242 |
| RRIRWRPPRLPRPRPRPTCQPRP | 0.729 |
| RRIRERPPRLPRPRPRPPGYPRP | -0.175 |
| RRIRNRPPRLPRPRPRPLFTPRP | -0.0916 |
| RRIRARPPRLPRPRPRPKIVPRP | -0.0715 |
| RRIRFRPPRLPRPRPRPFTWPRP | -0.816 |
| RRIRYRPPRLPRPRPRPPSKPRP | -0.409 |
| RRIRFRPPRLPRPRPRPVARPRP | 0.0942 |
| RRIRNRPPRLPRPRPRPQWLPRP | -0.317 |
| RRIRGRPPRLPRPRPRPAPLPRP | 0.893 |
| RRIRTRPPRLPRPRPRPHTPPRP | 0.0178 |
| RRIRLRPPRLPRPRPRPVSYPRP | -0.0976 |
| RRIRVRPPRLPRPRPRPIDMPRP | -0.0698 |
| RRIRPRPPRLPRPRPRPVGIPRP | 0.0618 |
| RRIRKRPPRLPRPRPRPPHWPRP | 0.756 |
| RRIRGRPPRLPRPRPRPTEDPRP | 1.2 |
| RRIRHRPPRLPRPRPRPAIMPRP | -0.233 |
| RRIRERPPRLPRPRPRPMFCPRP | -0.168 |
| RRIRCRPPRLPRPRPRPRRIPRP | -0.246 |
| RRIRHRPPRLPRPRPRPLRYPRP | -0.388 |
| RRIRYRPPRLPRPRPRPHLIPRP | -0.103 |
| RRIRVRPPRLPRPRPRPPMAPRP | 0.228 |
| RRIRLRPPRLPRPRPRPAWFPRP | 0.103 |
| RRIRGRPPRLPRPRPRPCMYPRP | 0.013 |

| Sequence | shrunken log2 fold change |
| --- | --- |
| RRIRYRPPRLPRPRPRPCTKPRP | -1.15 |
| RRIRERPPRLPRPRPRPIDLPRP | -0.219 |
| RRIRNRPPRLPRPRPRPPTDPRP | 0.992 |
| RRIRFRPPRLPRPRPRPTVTPRP | 0.052 |
| RRIRQRPPRLPRPRPRPLLNPRP | -0.29 |
| RRIRWRPPRLPRPRPRPIGAPRP | 0.0619 |
| RRIRFRPPRLPRPRPRPYKCPRP | -0.208 |
| RRIRLRPPRLPRPRPRPACTPRP | -0.128 |
| RRIRCRPPRLPRPRPRPHGMPRP | -0.114 |
| RRIRRRPPRLPRPRPRPTLEPRP | 0.607 |
| RRIRTRPPRLPRPRPRPARDPRP | 0.146 |
| RRIRMRPPRLPRPRPRPPDNPRP | 1.55 |
| RRIRGRPPRLPRPRPRPEFTPRP | 0.74 |
| RRIRMRPPRLPRPRPRPMTWPRP | 0.0101 |
| RRIRGRPPRLPRPRPRPCQKPRP | 0.0649 |
| RRIRARPPRLPRPRPRPMSMPRP | 0.0853 |
| RRIRHRPPRLPRPRPRPATKPRP | -0.0317 |
| RRIRGRPPRLPRPRPRPYGFPRP | -0.0296 |
| RRIRHRPPRLPRPRPRPGKIPRP | -0.769 |
| RRIRARPPRLPRPRPRPIPVPRP | 0.161 |
| RRIRKRPPRLPRPRPRPWQLPRP | -0.00277 |
| RRIRRRPPRLPRPRPRPLEFPRP | -0.0524 |
| RRIRPRPPRLPRPRPRPVCWPRP | 0.533 |
| RRIRSRPPRLPRPRPRPYHPPRP | -0.00174 |
| RRIRNRPPRLPRPRPRPTWMPRP | -0.155 |

| Sequence | shrunken log2 fold change |
| --- | --- |
| RRIRDRPPRLPRPRPRPTKTPRP | -0.014 |
| RRIRMRPPRLPRPRPRPYHYPRP | -0.638 |
| RRIRGRPPRLPRPRPRPEWYPRP | 0.243 |
| RRIRPRPPRLPRPRPRPTKIPRP | -0.0764 |
| RRIRGRPPRLPRPRPRPCNCPRP | 0.155 |
| RRIRSRPPRLPRPRPRPFGEPRP | -0.066 |
| RRIRSRPPRLPRPRPRPTTPPRP | 0.502 |
| RRIRLRPPRLPRPRPRPRTVPRP | 1.24 |
| RRIRLRPPRLPRPRPRPQNEPRP | -0.459 |
| RRIRMRPPRLPRPRPRPQDKPRP | 0.132 |
| RRIRARPPRLPRPRPRPTAPPRP | 0.8 |
| RRIRARPPRLPRPRPRPAISPRP | 0.594 |
| RRIRHRPPRLPRPRPRPEIAPRP | -0.0585 |
| RRIRRRPPRLPRPRPRPFNYPRP | -0.0716 |
| RRIRTRPPRLPRPRPRPMCTPRP | -0.0211 |
| RRIRKRPPRLPRPRPRPSRPPRP | 0.529 |
| RRIRDRPPRLPRPRPRPVVAPRP | 0.725 |
| RRIRWRPPRLPRPRPRPQWFPRP | -0.27 |
| RRIRVRPPRLPRPRPRPYITPRP | -0.77 |
| RRIRWRPPRLPRPRPRPWHGPRP | -0.368 |
| RRIRHRPPRLPRPRPRPEFKPRP | 0.0348 |
| RRIRCRPPRLPRPRPRPVTKPRP | 0.217 |
| RRIRYRPPRLPRPRPRPPHEPRP | -0.125 |
| RRIRYRPPRLPRPRPRPLRDPRP | 0.0739 |
| RRIRRRPPRLPRPRPRPNWCPRP | 0.177 |

| Sequence | shrunken log2 fold change |
| --- | --- |
| RRIRSRPPRLPRPRPRPVFYPRP | -0.266 |
| RRIRPRPPRLPRPRPRPSRPPRP | 0.133 |
| RRIRNRPPRLPRPRPRPTGAPRP | 0.256 |
| RRIRIRPPRLPRPRPRPYERPRP | -0.023 |
| RRIRSRPPRLPRPRPRPHYPPRP | -0.615 |
| RRIRYRPPRLPRPRPRPGSNPRP | -0.0401 |
| RRIRNRPPRLPRPRPRPQAEPRP | -0.155 |
| RRIRVRPPRLPRPRPRPMQSPRP | 0.292 |
| RRIRMRPPRLPRPRPRPNNSPRP | -0.327 |
| RRIRFRPPRLPRPRPRPHPVPRP | -0.141 |
| RRIRKRPPRLPRPRPRPCLCPRP | -0.138 |
| RRIRARPPRLPRPRPRPKFWPRP | 0.696 |
| RRIRLRPPRLPRPRPRPRKVPRP | 0.0909 |
| RRIRNRPPRLPRPRPRPLLPPRP | 0.0144 |
| RRIRRRPPRLPRPRPRPSHEPRP | -0.252 |
| RRIRHRPPRLPRPRPRPVYFPRP | -0.508 |
| RRIRPRPPRLPRPRPRPRHQPRP | 0.31 |
| RRIRWRPPRLPRPRPRPYEGPRP | -0.874 |
| RRIRMRPPRLPRPRPRPGVTPRP | 0.285 |
| RRIRQRPPRLPRPRPRPPKLPRP | 0.202 |
| RRIRQRPPRLPRPRPRPWCWPRP | 0.304 |
| RRIRRRPPRLPRPRPRPIARPRP | 0.0248 |
| RRIRHRPPRLPRPRPRPKNDPRP | -0.268 |
| RRIRPRPPRLPRPRPRPGYCPRP | -0.147 |
| RRIRCRPPRLPRPRPRPFKSPRP | 0.122 |

| Sequence | shrunken log2 fold change |
| --- | --- |
| RRIRHRPPRLPRPRPRPFDLPRP | -0.211 |
| RRIRGRPPRLPRPRPRPYFDPRP | -0.00956 |
| RRIRCRPPRLPRPRPRPGKLPRP | -0.111 |
| RRIRWRPPRLPRPRPRPDAPPRP | 0.558 |
| RRIRLRPPRLPRPRPRPMQDPRP | 0.0525 |
| RRIRNRPPRLPRPRPRPSPNPRP | -0.552 |
| RRIRWRPPRLPRPRPRPKPCPRP | 0.229 |
| RRIRGRPPRLPRPRPRPKKVPRP | 0.942 |
| RRIRTRPPRLPRPRPRPEKMPRP | 0.171 |
| RRIRARPPRLPRPRPRPCKKPRP | -0.0968 |
| RRIRIRPPRLPRPRPRPGKKPRP | 0.0847 |
| RRIRKRPPRLPRPRPRPRANPRP | 0.588 |
| RRIRVRPPRLPRPRPRPYVQPRP | -0.918 |
| RRIRWRPPRLPRPRPRPEKAPRP | -0.0225 |
| RRIRPRPPRLPRPRPRPWAMPRP | -0.223 |
| RRIRVRPPRLPRPRPRPIAMPRP | -0.0565 |
| RRIRKRPPRLPRPRPRPVRCPRP | 0.746 |
| RRIRDRPPRLPRPRPRPLCVPRP | 0.248 |
| RRIRSRPPRLPRPRPRPCPIPRP | -0.267 |
| RRIRNRPPRLPRPRPRPFMRPRP | 0.269 |
| RRIRTRPPRLPRPRPRPPKWPRP | 0.181 |
| RRIRYRPPRLPRPRPRPDDQPRP | -0.0136 |
| RRIRRRPPRLPRPRPRPQTEPRP | -0.0572 |
| RRIRMRPPRLPRPRPRPTKIPRP | 0.318 |
| RRIRMRPPRLPRPRPRPIRDPRP | -0.261 |
